Measurements published in US20020123068A1, “Water-soluble, fluorescent, & electrophoretically mobile peptidic substrates for enzymatic reactions and methods for their use in high-throughput screening assays” (priority 2001, published 2002).
Blank lines part the entries; values can stand above or below the molecule they belong to. Where a SMILES comes first, the peptide text is derived from it. Where no end group is shown, it is not given here. Side-chain parts run from the residue outwards. Texas Red = Texas Red: fluorescent dye

Legend:
[1] = system: T1, C-[S-(TXR-Jeff)]EEEFIYGAFKKKK
T1 sequence: CEEEFIYGAFKKKK

protein kinase A (PKA) = target: T2, protein kinase A (PKA) (Bos taurus, UniProt P00517); experiment: Protein kinase A phosphorylation assay (PepTag assay kit), agarose gel electrophoresis readout; format: biochemical
T2 construct: purchased Promega (Madison, WI)
Method: The fluorescent peptides were assayed with protein kinase A (PKA) using the PepTag assay kit from Promega (Madison, WI). The concentrations of the peptides in the assay were 60 μM, and the concentration of ATP was 1 mM. After completion of the assay the 25 μL reaction mixtures were spiked with 5 μL of 50% glycerol and submitted to gel electrophoresis in a 0.8% horizontal agarose slab in 50 mM TRIS HCl, pH 8.0. The gels were imaged with a fluorescence imager. The results appear in FIG. 1. The Lissamine Kemptide reaction mixtures (− & + kinase) are included as controls. It is clear that both isomers of N-(TXR)LRRASLG [SEQ. ID NO.

[2] = Solubility of peptides and fluorescent peptide conjugates in aqueous buffer; format: physicochemical
SRC Kinase [3] = target: T3, SRC Kinase (Homo sapiens, UniProt P12931); conditions: screen done by investigators at Selectide; cited from earlier work
SRC Kinase [4] = target: T3, SRC Kinase; experiment: SRC kinase assay of fluorescent peptidic substrates, agarose gel electrophoresis readout; format: biochemical; conditions: for substrate of SRC kinase (FIG. 4): peptide 20 μM, 10 units SRC kinase, 1 h at room temperature
Method: An assay of the fluorescent peptidic substrate was performed in the presence of SRC Kinase. The peptide concentration was 10 μM, and the ATP concentration was 100 μM. The reaction proceeded in a buffer comprising 25 mM sodium (N-[2-hydroxyethyl]piperazine-N′-[2-ethanesulfonate]), 20 mM magnesium chloride, pH 7.4 for 90 min at room temperature, and the reaction mixture was submitted to gel electrophoresis in a 0.8% agarose slab at pH 8.0. Nearly 75% conversion of the substrate to product took place, and the substrate and product migrated in opposite directions. The results appear in FIG. 3.
A kinase assay was performed with each of these peptides as substrates. The concentrations of the Ac-C-[S-(BTR-Jeff)]EEFIYGAFKKKK [SEQ. ID NO. 3] and Ac-C-[S-(BTR-Jeff)]EEFIYGAFRRRR [SEQ. ID NO. 4] were 20 μM, respectively. The ATP concentration in each reaction was 100 μM, and 10 units of SRC kinase were added per reaction. The reactions proceeded at room temperature for 1 h. The reaction mixtures were spiked with 50% glycerol to give a final concentration of 10%. The samples (25 μL) were submitted to gel electrophoresis on a 0.8% agarose slab in 50 mM TRIS HCl, pH 8.0.
The SRC substrate Ac-C-[S-(TXR-Jeff)]EEFIYGAFKKKK [SEQ. ID NO. 5] was prepared and assayed as described by the method in Example 5 with the exceptions that TXR-Jeffamine-BAA was used as the fluorophore and the assay was allowed to proceed overnight. The results of the assay appear in FIG. 5. The anode is to the left and the cathode to the right. N-(TXR)-LRRASLG [SEQ. ID NO. 11] (Texas Red labeled Kemptide) and its phosphorylated derivative were included as mobility standards.

[5] = system: T4, conjugate comprising just the BODIPY630/650 and Kemptide
T4 sequence: LRRASLG

Molecule: SRC kinase
Km (kinase assay) [1]: Km=8.5 µM
conversion of the substrate to product (kinase assay, agarose gel electrophoresis) [1]: Nearly 75% conversion of the substrate to product took place

Molecule: FIYGAFK (Test Substrate Sequence)
active substrate of SRC Kinase in resin-bound peptide library screen (SRC Kinase [3]): active substrate

Molecule: Ac-C-[S-(BTR-Jeff)]EEFIYGAFKKKK: BODIPY TR-Jeffamine ED-900 conjugate of N-acetylated peptide Ac-CEEFIYGAFKKKK (Ac-C([Jeffamine ED‑900-BODIPY TR])EEFIYGAFKKKK)
substrate of SRC kinase (FIG. 4) (SRC Kinase [4]; ATP 100 μM): is a substrate of SRC kinase

Molecule: CC[C@H](C)[C@H](NC(=O)[C@H](Cc1ccccc1)NC(=O)[C@H](C)NC(=O)[C@H](C)NC(=O)[C@@H](N)CS)C(=O)N[C@@H](Cc1ccc(O)cc1)C(=O)NCC(=O)N[C@@H](C)C(=O)N[C@@H](Cc1ccccc1)C(=O)N[C@@H](CCCCN)C(=O)O [CAAFIYGAFK] (H-CAAFIYGAFK-OH; N-terminus and C-terminus assumed)
solubility [2]: Insolubility

Molecule: protein kinase A (PKA)
phosphorylation [5]: its solubility was so low that Protein Kinase A could not phosphorylate it

Further lines, with some results ahead:

phosphorylation by Protein Kinase A (Example 3, FIG. 2) (protein kinase A (PKA)): could not phosphorylate
Molecule: conjugate comprising just the BODIPY630/650 and Kemptide: BODIPY630/650 coupled to Kemptide LRRASLG without PEG spacer (also: BODIPY630/650 coupled without spacer, site not given here) [reference compound]
solubility [2]: so low

quality/reactivity as substrate for SRC kinase (in words) (SRC Kinase [4]): good reactivity
Molecule: Ac-C-[S-(TXR-Jeff)]EEFIYGAFKKKK: Texas Red-Jeffamine ED-900 conjugate of N-acetylated peptide Ac-CEEFIYGAFKKKK (Example 6) (Ac-C([Jeffamine ED‑900-Texas Red])EEFIYGAFKKKK)

substrate for PKA (FIG. 1) (protein kinase A (PKA); peptide 60 μM, ATP 1 mM): substrates for PKA
Molecule: N-(TXR)LRRASLG: Texas Red-X labeled Kemptide prepared for comparison (Example 1) ({Texas Red‑X}-LRRASLG)

substrate of SRC kinase (FIG. 4) (SRC Kinase [4]; ATP 100 μM): is not
Molecule: Ac-C-[S-(BTR-Jeff)]EEFIYGAFRRRR: BODIPY TR-Jeffamine ED-900 conjugate of N-acetylated peptide Ac-CEEFIYGAFRRRR (Ac-C([Jeffamine ED‑900-BODIPY TR])EEFIYGAFRRRR)
solubility [2]: much lower
quality/reactivity as substrate for SRC kinase (in words) (SRC Kinase [4]): did not result in a sufficiently reactive substrate

quality/reactivity as substrate for SRC kinase (in words) (SRC Kinase [4]): good substrate
Molecule: C-[S-(TXR-Jeff)]EEEFIYGAFKKKK: Texas Red linked through a Jeffamine ED-900 PEG spacer to the cysteine thiol of peptide CEEEFIYGAFKKKK; SRC kinase substrate (C([Jeffamine ED‑900-Texas Red])EEEFIYGAFKKKK)
Km (SRC Kinase [4]; fluorescent peptide as substrate for SRC Kinase): 8.5 µM
conversion of the substrate to product (SRC Kinase [4]; peptide 10 μM, ATP 100 μM, pH 7.4, 90 min at room temperature): ~75%

phosphorylation by Protein Kinase A (Example 3, FIG. 2) (protein kinase A (PKA)): successfully phosphorylated
Molecule: (BODIPY-PEG)-labeled Kemptide: BODIPY630/650 coupled to Kemptide LRRASLG through a 3,400 molecular weight PEG spacer (not fully specified; also: BODIPY630/650 label, attachment site not given here)
